According to patent publication US12042530B2, “Target peptides for immunotherapy and diagnostics” (University of Virginia Patent Foundation, priority 2012, dated 2024):
Non-standard residues stand in square brackets, D forms with d. No end group written: not given here. pT = C[C@@H](OP(=O)(O)O)[C@H](N)C(=O)O; pS = N[C@@H](COP(=O)(O)O)C(=O)O

Assays:
HLA-B*0702 = molecular target: T1, HLA-B*0702 (Homo sapiens, UniProt P01889); assay: Phosphopeptides presented in association with class I molecules (HLA-B*0702) on cancer cells: melanoma and/or leukemia; design: key: Melanoma (M); Leukemia (L); L/M: Melanoma (M) and/or Leukemia (L); details: cancer type on which the HLA-B*0702 phosphopeptide is presented
T1 construct: endogenous in cells; host or cells: melanoma and/or leukemia cells

[1] = molecular target: T2, HLA-B*0702 (HLA-B7) peptide complexes (Homo sapiens, UniProt P01889); assay: HLA-B*0702 phosphopeptides associated with leukemia samples (isolation of HLA-associated peptides); details: for Copies/cell class, ALL1: acute lymphoblastic leukemia sample ALL1; for Copies/cell class, B Cell: healthy B cells; for Copies/cell class, T Cell: healthy T cells
T2 construct: endogenous in cells; host or cells: JY B-lymphoblastoid line; primary ALL, CLL, HCL, AML samples; bone marrow; healthy B and T cells
From the text: To identify naturally processed tumor-associated phosphopeptides, HLA-A*0201 (HLA-A2) and HLA-B*0702 (HLA-B7) peptide complexes from four (4) chronic lymphocytic leukemia (CLL) tumor samples, a mantle cell lymphoma sample (MCL), one acute lymphoblastic leukemia (ALL), and an acute myeloid leukemia (AML) sample, in addition to healthy splenic T and B-cells and the cultured lymphoblastoid cell line JY were isolated. These efforts yielded 10 HLA-A2-restricted and 86 HLA-B7-restricted phosphopeptide antigens (see Tables 6 and 7).
All cell lines were grown at 37° C. with 5% CO2 in growth medium consisting of RPMI 1640 supplemented with 10% FCS and two mM L-glutamine. Blood or leukapheresis samples were taken from patients with high-burden leukemia in heparin. Tumor cells were recovered by layering the blood over density gradient (Ficoll) and collecting the tumor layer following centrifugation. The tumor was washed in tris-buffered saline (TBS). The purity of the tumor was assessed using flow cytometry and was >98% pure in all cases. For healthy T and B-cell populations, a normal spleen sample processed and tonsil sample was collected and lymphocytes released through mechanical disruption. Mononuclear cells were isolated using a density gradient and 10^9 T cells isolated using anti-CD19 or anti-CD3 microbeads (Miltenyi Biotec Inc., Auburn, California, United States of America) with purity >98% were obtained. Bone marrow sample was obtained from an elective orthopedic procedure and red cell-depleted using hypotonic lysis. This sample was not processed further.
Class I MHC molecules were immunoaffinity purified from the JY cell line or from primary tumor samples, and their associated peptides were extracted as previously described in Zarling et al., 2006. Approximately 1.2-14×10^9 cells were lysed in a solution containing 20 mM Tris-HCl (pH 8.0), 150 mM NaCl, 1% CHAPS, one mM PMSF, five μg/mL aprotinin, 10 μg/mL leupeptin, 10 μg/mL pepstatin A, 1 μg/ml calyculin A, and phosphatase inhibitor (cocktails I and II; Sigma-Aldrich). The mixture was subjected to centrifugation and the resulting supernatant was passed over protein A sepharose pre-loaded with the HLA-A2-specific antibody BB7.2 or HLA-B7-specific antibody MEL Peptides were eluted from the purified class I MHC molecules with 10% acetic acid.

266 (APRKG[pS]FSALM; listed as Homo sapiens) [compound 266]
L/M (HLA-B*0702): M

267 (APRRY[pS]SSL; listed as Homo sapiens) [compound 267]
Copies/cell class, AML1 [1]: 1 (1 indicates <1 copy/cell) | L/M (HLA-B*0702): L/M

268 (APR[pS]PPPSRP; listed as Homo sapiens) [compound 268]
L/M (HLA-B*0702): M

269 (EPKRR[pS]ARL; listed as Homo sapiens) [compound 269]
Copies/cell class, AML1 [1]: 1 (1 indicates <1 copy/cell) | L/M (HLA-B*0702): L

270 (EPR[pS]PSHSM; listed as Homo sapiens) [compound 270]
Copies/cell class, AML1 [1]: 1 (1 indicates <1 copy/cell) | L/M (HLA-B*0702): L

271 (FPH[pS]LLSVI; listed as Homo sapiens) [compound 271]
L/M (HLA-B*0702): M

272 (FRR[pS]PTKSSL; listed as Homo sapiens) [compound 272]
Copies/cell class, AML1 [1]: 2 (2 indicates 1-5 copies/cell) | L/M (HLA-B*0702): L

273 (FRR[pS]PTKSSLDY; listed as Homo sapiens) [compound 273]
Copies/cell class, AML1 [1]: 4 (4 indicates >25 copies per cell) | L/M (HLA-B*0702): L

274 (FSI[pS]PVRL; listed as Homo sapiens) [compound 274]
Copies/cell class, ALL1 [1]: 4 (4 indicates >25 copies per cell) | Copies/cell class, B Cell [1]: 2 (2 indicates 1-5 copies/cell) | Copies/cell class, T Cell [1]: 2 (2 indicates 1-5 copies/cell) | L/M (HLA-B*0702): L

275 (GAQPGRH[pS]V; listed as Homo sapiens) [compound 275]
L/M (HLA-B*0702): M

276 (GPRSA[pS]LL[pS]L; listed as Homo sapiens) [compound 276]
L/M (HLA-B*0702): L

277 (GPRSASLL[pS]L; listed as Homo sapiens) [compound 277]
Copies/cell class, AML1 [1]: 4 (4 indicates >25 copies per cell) | L/M (HLA-B*0702): M

278 (GPR[pS]ASLLSL; not fully specified; listed as Homo sapiens) [compound 278]
Copies/cell class, AML1 [1]: 3 (3 indicates 6-25 copies per cell) | L/M (HLA-B*0702): M

279 (HPR[pS]PTPTL; listed as Homo sapiens) [compound 279]
L/M (HLA-B*0702): M

280 (HPRSP[pT]PTL; listed as Homo sapiens) [compound 280]
L/M (HLA-B*0702): M

281 (KAR[pS]PGRAL; listed as Homo sapiens) [compound 281]
L/M (HLA-B*0702): M

282 (KPA[pS]PARRL; listed as Homo sapiens) [compound 282]
Copies/cell class, CLL2 ([1]; CLL2): 1 (1 indicates <1 copy/cell) | Copies/cell class, JY ([1]; JY): 1 (1 indicates <1 copy/cell) | Copies/cell class, ALL1 [1]: 1 (1 indicates <1 copy/cell) | Copies/cell class, HCL1 ([1]; hairy cell leukemia sample HCL1): 1 (1 indicates <1 copy/cell) | L/M (HLA-B*0702): L

283 (KPA[pS]PKFIVTL; listed as Homo sapiens) [compound 283]
Copies/cell class, AML1 [1]: 2 (2 indicates 1-5 copies/cell) | L/M (HLA-B*0702): L

284 (KPPH[pS]PLVL; listed as Homo sapiens) [compound 284]
Copies/cell class, ALL1 [1]: 4 (4 indicates >25 copies per cell) | Copies/cell class, T Cell [1]: 2 (2 indicates 1-5 copies/cell) | L/M (HLA-B*0702): L

285 (KPP[pS]PEHQSL; listed as Homo sapiens) [compound 285]
Copies/cell class, ALL1 [1]: 1 (1 indicates <1 copy/cell) | L/M (HLA-B*0702): L

286 (KPP[pS]PSPIEM; listed as Homo sapiens) [compound 286]
L/M (HLA-B*0702): L

287 (KPP[pT]PGASF; listed as Homo sapiens) [compound 287]
Copies/cell class, ALL1 [1]: 3 (3 indicates 6-25 copies per cell) | Copies/cell class, B Cell [1]: 1 (1 indicates <1 copy/cell) | Copies/cell class, T Cell [1]: 2 (2 indicates 1-5 copies/cell) | L/M (HLA-B*0702): L

290 (KPRPPPL[pS]P; listed as Homo sapiens) [compound 290]
L/M (HLA-B*0702): M

292 (KPR[pS]PPRAL; listed as Homo sapiens) [compound 292]
L/M (HLA-B*0702): L/M

293 (KPR[pS]PPRALV; listed as Homo sapiens) [compound 293]
L/M (HLA-B*0702): M

294 (KPR[pS]PPRALVL; listed as Homo sapiens) [compound 294]
L/M (HLA-B*0702): M

298 (LPIFSRL[pS]I; listed as Homo sapiens) [compound 298]
L/M (HLA-B*0702): L

299 (LPK[pS]PPYTAF; listed as Homo sapiens) [compound 299]
L/M (HLA-B*0702): M

300 (LPRGS[pS]PSVL; listed as Homo sapiens) [compound 300]
L/M (HLA-B*0702): M

301 (MPRQP[pS]ATRL; listed as Homo sapiens) [compound 301]
L/M (HLA-B*0702): M

311 (RPA[pT]PTSQF; listed as Homo sapiens) [compound 311]
L/M (HLA-B*0702): M

316 (RPI[pS]PGLSY; listed as Homo sapiens) [compound 316]
L/M (HLA-B*0702): L

326 (RPRG[pS]QSLL; listed as Homo sapiens) [compound 326]
L/M (HLA-B*0702): M

329 (RPRR[pS]STQL; listed as Homo sapiens) [compound 329]
L/M (HLA-B*0702): M

332 (RPRSL[pS]SPTVTL; listed as Homo sapiens) [compound 332]
L/M (HLA-B*0702): M

335 (RPR[pS]PPPRAP; listed as Homo sapiens) [compound 335]
L/M (HLA-B*0702): M

340 (RPRPV[pS]PSSL; listed as Homo sapiens) [compound 340]
L/M (HLA-B*0702): L

341 (RPSGRRE[pS]L; listed as Homo sapiens) [compound 341]
L/M (HLA-B*0702): M

345 (RPS[pT]PKSDSEL; listed as Homo sapiens) [compound 345]
L/M (HLA-B*0702): L

353 (RRL[pS]GPLHTL; listed as Homo sapiens) [compound 353]
L/M (HLA-B*0702): M

354 (RRP[pS]YTLGM; listed as Homo sapiens) [compound 354]
L/M (HLA-B*0702): M

355 (RR[pS][pS]FLQVF; listed as Homo sapiens) [compound 355]
L/M (HLA-B*0702): M

357 (RR[pS]SQSWSL; listed as Homo sapiens) [compound 357]
L/M (HLA-B*0702): M

362 (RSR[pS]PRPAL; listed as Homo sapiens) [compound 362]
L/M (HLA-B*0702): M

364 (RTF[pS]PTYGL; listed as Homo sapiens) [compound 364]
L/M (HLA-B*0702): M

365 (RTR[pS]PSPTL; listed as Homo sapiens) [compound 365]
L/M (HLA-B*0702): M

369 (SPFKRQL[pS]L; listed as Homo sapiens) [compound 369]
L/M (HLA-B*0702): M

372 (SPK[pS]PTAAL; listed as Homo sapiens) [compound 372]
L/M (HLA-B*0702): M

373 (SPRER[pS]PAL; listed as Homo sapiens) [compound 373]
L/M (HLA-B*0702): M

375 (SPRR[pS]RSI[pS]L; listed as Homo sapiens) [compound 375]
L/M (HLA-B*0702): L/M

380 (SPRTPV[pS]PVKF; listed as Homo sapiens) [compound 380]
L/M (HLA-B*0702): M

381 (SPR[pT]PV[pS]PVKF; listed as Homo sapiens) [compound 381]
L/M (HLA-B*0702): M

384 (SPVVHQ[pS]L; listed as Homo sapiens) [compound 384]
L/M (HLA-B*0702): M

390 (YPS[pS]PRKL; listed as Homo sapiens) [compound 390]
L/M (HLA-B*0702): M
